From doi:10.1101/2024.06.17.599268 (bioRxiv, 2024) come the findings set out here.

Residue numbers refer to the chain shown, from its start. Names and notes keep the numbering of the source.

B1: bMERB_(V985A) (domain or fragment)
chain: KEEEMKRFCKAQTIQRRLNEIEAALRELEAEGVKLELALRRQSSSPEQQKKLWVGQLLQLVDKKNSLAAEEAELMITVQELNLEEKQWQLDQELRGYMNREENLKTAADRQAEDQVLRKLVDLVNQRDALIRFQEERRLSELALGTGAQG
B2: Mical1 bMERB domain (residues 918-1067) (domain or fragment)
chain: B1 chain with A68V
B3: Rab15_(1-176) (natural protein)
chain: MAKQYDVLFRLLLIGDSGVGKTCLLCRFTDNEFHSSHISTIGVDFKMKTIEVDGIKVRIQIWDTAGQERYQTITKQYYRRAQGIFLVYDISSERSYQHIMKWVSDVDEYAPEGVQKILIGNKADEEQKRQVGREQGQQLAKEYGMDFYETSACTNLNIKESFTRLTELVLQAHRKE
B4: Rab10_(1-175) (natural protein)
chain: MAKKTYDLLFKLLLIGDSGVGKTCVLFRFSDDAFNTTFISTIGIDFKIKTVELQGKKIKLQIWDTAGQERFHTITTSYYRGAMGIMLVYDITNGKSFENISKWLRNIDEHANEDVERMLLGNKCDMDDKRVVPKGKGEQIAREHGIRFFETSAKANINIEKAFLTLAEDILRKTP

Assay [1] addresses Mical1 MO-CH-LIM (residues 1-781) (human) (UniProt Q8TDZ2). Kind of assay: ITC. In general terms: ITC needs no label: the signal is the heat of the interaction.
The target in assay [2] is T1, Rab8a_(1-176) (human, UniProt P61006 1-176).
T1 sequence: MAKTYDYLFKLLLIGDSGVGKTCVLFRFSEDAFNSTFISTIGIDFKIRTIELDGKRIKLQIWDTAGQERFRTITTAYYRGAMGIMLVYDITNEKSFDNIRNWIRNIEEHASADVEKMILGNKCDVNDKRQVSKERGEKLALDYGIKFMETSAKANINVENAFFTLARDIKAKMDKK
The assay is described as follows: ITC.

Assay [3] concerns the target T2, Mical1 MO-CH-LIM (residues 1-781) (human, UniProt Q8TDZ2 1-781).
T2 sequence: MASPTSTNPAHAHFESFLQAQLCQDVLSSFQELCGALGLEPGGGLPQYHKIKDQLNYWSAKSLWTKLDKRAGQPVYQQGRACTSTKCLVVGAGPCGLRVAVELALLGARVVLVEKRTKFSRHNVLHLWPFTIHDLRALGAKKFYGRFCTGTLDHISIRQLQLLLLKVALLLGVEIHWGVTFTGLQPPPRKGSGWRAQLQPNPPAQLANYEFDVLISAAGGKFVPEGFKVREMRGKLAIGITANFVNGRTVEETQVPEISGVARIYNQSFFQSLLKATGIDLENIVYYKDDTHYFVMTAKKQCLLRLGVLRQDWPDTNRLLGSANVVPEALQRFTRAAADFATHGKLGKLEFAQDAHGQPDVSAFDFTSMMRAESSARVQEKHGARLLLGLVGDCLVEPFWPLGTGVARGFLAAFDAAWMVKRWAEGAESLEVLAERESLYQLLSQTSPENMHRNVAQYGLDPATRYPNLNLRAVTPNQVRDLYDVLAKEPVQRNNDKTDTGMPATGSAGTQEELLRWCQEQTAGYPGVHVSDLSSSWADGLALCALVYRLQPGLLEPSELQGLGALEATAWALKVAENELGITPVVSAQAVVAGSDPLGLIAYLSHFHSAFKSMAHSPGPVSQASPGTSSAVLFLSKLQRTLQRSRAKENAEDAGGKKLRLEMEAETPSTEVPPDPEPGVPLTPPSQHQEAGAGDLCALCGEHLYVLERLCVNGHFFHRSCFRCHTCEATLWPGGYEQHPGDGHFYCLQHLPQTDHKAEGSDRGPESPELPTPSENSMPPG
Kind of assay: ITC.

Assay [4] has as its target T1, Rab8a_(1-176). Kind of assay: SEC.
The assay “Rab10_(1-175)” addresses B4. The assay is described as follows: SEC. A general note: SEC sorts molecules by how far they enter the pores of the column.
The assay “Rab15_(1-176)” concerns the target B3. Kind of assay: SEC.
For assay [5], the target named is B2. The assay is described as follows: ITC.

For orientation: Kd means a measure of binding affinity in units of concentration. A high value points to lower affinity. A word on the stoichiometry N: it is the number of molecules, sites or subunits per partner or assembly. Consider “Mical1 bMERB domain (residues 918-1067) (from UniProt Q8TDZ2 918-1067) (domain or fragment)”, for which, in assay [1], the Kd was determined as 2700 nM and the stoichiometry N stood at 1.

Take B1: in the assay with Rab8a_(1-176) [2], the binding result is on record as “binds”. For the same molecule, the “fold reduction in affinity against wild-type bMERB” value in assay [3] stood at 10 fold.

Take B2: the binding result in the assay with Rab8a_(1-176) [4], with Rab10_(1-175) and with Rab15_(1-176) was “binds” each time.

For B3, in assay [5], the “KD of the high-affinity site (Ct-RBS2)” value was 2.5 nM, the “KD of the low-affinity site (Nt-RBS1)” value is 2.91 µM and the “stoichiometry N” value worked out at 2.

Turning to B4, in assay [5], the “KD of the high-affinity site (Ct-RBS2)” value was 11 nM, the “KD of the low-affinity site (Nt-RBS1)” value was 3.73 µM and the “stoichiometry N” value came to 2.
